Data on 4 molecules can be found in patent US20150017162A1 (OMEROS, published 2015).

The target of experiment [1] is T1, human MASP-2 (human, UniProt O00187 16-686). The experiment in a line: cell-based or functional assay.
Experiment [2] deals with T1, human MASP-2. Briefly: cell-based or functional assay. This is another data set of the same source.

T1 sequence (O00187 16-686): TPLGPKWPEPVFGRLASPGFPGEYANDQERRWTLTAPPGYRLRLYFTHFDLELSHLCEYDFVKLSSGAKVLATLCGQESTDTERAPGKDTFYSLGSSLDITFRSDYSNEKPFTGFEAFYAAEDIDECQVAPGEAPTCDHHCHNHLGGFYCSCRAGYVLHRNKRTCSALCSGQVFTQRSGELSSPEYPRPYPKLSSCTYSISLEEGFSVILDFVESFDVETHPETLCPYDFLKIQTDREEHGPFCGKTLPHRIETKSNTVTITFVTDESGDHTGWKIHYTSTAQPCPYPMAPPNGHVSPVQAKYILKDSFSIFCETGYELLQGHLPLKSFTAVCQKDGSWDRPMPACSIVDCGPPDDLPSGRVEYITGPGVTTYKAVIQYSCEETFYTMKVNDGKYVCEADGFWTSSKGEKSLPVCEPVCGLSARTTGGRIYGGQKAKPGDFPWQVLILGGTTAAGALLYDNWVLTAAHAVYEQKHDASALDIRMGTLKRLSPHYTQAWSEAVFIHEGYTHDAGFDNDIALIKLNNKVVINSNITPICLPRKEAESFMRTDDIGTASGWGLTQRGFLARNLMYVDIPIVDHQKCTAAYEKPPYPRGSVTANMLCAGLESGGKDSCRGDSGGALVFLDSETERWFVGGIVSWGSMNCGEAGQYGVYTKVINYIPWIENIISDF

B1: scFv clone 17D20 (scFv)
scFv: QVTLKESGPVLVKPTETLTLTCTVSGFSLSRGKMGVSWIRQPPGKALEWLAHIFSSDEKSYRTSLKSRLTISKDTSKNQVVLTMTNMDPVDTATYYCARIRAGGIDYWGQGTLVTVSSKLSGSASAPKLEEGEFSEARVQPVLTQPPSVSVSPGQTASITCSGDKLGDKFAYWYQQKPGHSPVLVIYQDNKRPSGIPGRFSGSNSGNTATLTISGTQAMDEADYYCQAWDSSTAVFGTGTKVTVLAAAGSEQKLISEEDLNSHHHHHH
Regarding B1, in the experiment with human MASP-2 [1], the “IC50, C3 assay, 1% human serum (average value)” value (shortened to “IC50, C3 assay, 1% human serum”) came out at 38 nM.

B2: NimoAb101 (antibody, V domains shown)
VH: EVQLVESGGGLVQPGRSLKLSCLVSGFTFSNFGMNWIRQAPGKGLEWVASISSGGTYIYHADTLKGRFTISRENAKNTLYLQMTSLRSEDTALYYCARGPYHSRYIPYLMDAWGQGASVTVSS
VL: DIQMTQSPGSLCASLGETVTIECRASDDIYSNLAWYQQKPGNSPQLLIFDGNRLADGVPSRFSGSGSGTQYSLKMKSLQFEDVASYFCQQYNNYPLTFGSGTKLEIKR
On to B2, for which the “IC50, C4 deposition in full human serum” value with human MASP-2 [2] amounted to 0.0318 µg/mL.

B3: scFv daughter clone 17N16m_d17N9 (scFv)
chain: QVQLQQSGPGLVKPSQTLSLTCAISGDSVSSTSAAWNWIRQSPSRGLEWLGRTYYRSKWYNDYAVSVKSRITINPDTSKNQFSLQLNSVTPEDTAVYYCARDPFGVPFDIWGQGTMVTVSSSYELIQPPSVSVAPGQTATITCAGDNLGKKRVHWYQQRPGQAPVLVIYDDSDRPSGIPDRFSASNSGNTATLTITRGEAGDEADYYCQVWDIATDHVVFGGGTKLTVLAAAGSEQKLISE
B3: the “IC50, C3 assay, 1% human serum” value with human MASP-2 [1] came to 48 nM.

B4: scFv clone 17N16 (scFv)
scFv: QVQLQQSGPGLVKPSQTLSLTCAISGDSVSSTSAAWNWIRQSPSRGLEWLGRTYYRSKWYNDYAVSVKSRITINPDTSKNQFSLQLNSVTPEDTAVYYCARDPFGVPFDIWGQGTMVTVSSKLSGSASAPKLEEGEFSEARVSYVLTQPPSVSVAPGQTARITCGGNNIGSKNVHWYQQKPGQAPVLVVYDDSDRPSGIPERFSGSNSGNTATLTVSRVEAGDEADYYCQVWDTTTDHVVFGGGTKLTVLAAAGSEQKLISEEDLNSHHHHHH
As to B4, the “IC50, C3 assay, 1% human serum” value with human MASP-2 [1] is 68 nM.
